Results as given in the supplement of paper PMC10567573.

B1: PLAGL1 (parent)
chain: LELGSTEVLLDHLKAHAEEKPPSG
B2: TFE3 (parent)
chain: FPSDHLGDLGDPFHLGLEDILMEE

Variants of: B1
Experiment: protein stability index of a GFP-peptide fusion (GPS, HEK-293T) (PSI 1-6); higher = more stable
Conditions: c terminus: a fixed tail appended
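Also: lentivirally expressed fusions sorted by FACS into six bins by GFP to DsRed ratio, PSI derived from sequencing read proportions per bin multiplied by bin number.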

Variant	protein stability index
L3F	4.33
L3H	5.4
L3D	5.79
L3Y	5.45
L3M	4.09
L3S	5.72
L3P	5.88
L3E	5.8
L3K	5.19
L3R	5.54
L3N	5.67
L3A	5.17
L3T	5.18
L3W	4.49
L3C	5.21
L3I	4.74
L3Q	5.55
L3G	5.74
L3V	4.9
S5H	4.84
S5A	3.22
S5T	4.44
S5V	3.79

Variant	protein stability index
S5C	4.51
S5E	3.8
S5G	4.56
S5M	2.3
S5D	4.84
S5I	4.15
S5W	2.97
S5Y	3.33
S5F	3.09
S5N	5.08
S5K	3.85
S5L	2.53
S5Q	2.92
S5R	3.5
S5P	4.79
T6I	3.4
T6G	4.75
T6R	4.57
T6Q	5.22
T6F	3.62
T6L	2.84
T6P	4.25
T6S	4.71

Variant	protein stability index
T6V	4.24
T6K	5.38
T6C	4.38
T6A	3.58
T6H	5.42
T6N	4.76
T6W	2.89
T6M	3.74
T6Y	3.76
T6E	5.49
V8S	4.87
V8F	3.85
V8W	3.79
V8A	4.64
V8E	5.29
V8M	3.54
V8N	4.85
V8D	5.01
V8P	4.84
V8R	4.96
V8T	5
V8Q	4.75
V8I	3.91

Variant	protein stability index
V8H	4.55
V8Y	4.62
V8C	4.41
V8K	4.51
V8L	3.21
E7T	4.24
E7I	3.69
E7C	4.27
E7V	3.82
E7S	4.81
E7P	5.07
E7K	3.85
E7Q	4.89
E7A	4.78
E7Y	3.77
E7W	3.04
E7L	3.41
E7M	3.54
E7F	3.86
E7N	4.67
E7G	4.89
E7H	4.39
E7D	5.27

Variant	protein stability index
E7R	4.81
L9H	5.15
L9V	4.97
L9C	5.04
L9N	5.71
L9Y	4.83
L9F	4.79
L9E	5.92
L9G	5.6
L9Q	5.84
L9W	4.11
L9S	5.72
L9A	5.08
L9D	4.91
L9K	4.99
L9R	4.63
L9I	4.45
L9P	5.57
L9M	4.77
L9T	5.58
E2P	4.67
E2T	4.16
E2C	3.84

Variant	protein stability index
E2Y	2.34
E2A	3.53
E2R	3.4
E2Q	4.19
E2H	4.03
E2M	2.81
E2K	4.23
E2V	2.49
E2N	4.69
E2S	3.37
E2F	2.15
E2W	2
E2D	4.03
E2G	4.81
E2I	3.18
E2L	2.27
G4R	3.94
G4A	2.89
G4D	5.28
G4H	3.83
G4S	4.14
G4C	3.54
G4V	3.28

Variant	protein stability index
G4I	2.58
G4L	2.77
G4T	3.95
G4P	4.77
G4M	2.25
G4E	3.85
G4K	4.3
G4F	2.59
G4N	4.54
G4W	2.2
G4Q	3.68
G4Y	2.19
L10D	5.35
L10Q	5.41
L10H	5.35
L10R	5.62
L10K	5.83
L10N	5.74
L10I	4.07
L10G	5.66
L10C	5.35
L10A	5.72
L10P	5.36

Variant	protein stability index
L10M	5.42
L10E	4.86
L10F	5.3
L10S	5.42
L1C	4.61
L1P	5.23
L1D	5.24
L1I	3.55
L1Y	4.38
L1N	5.35
L1Q	4.99
L1K	5.53
L1W	4.28
L1R	5.29
L1G	4.44
L1S	4.98
L1A	5.43
L1M	4.59
L1H	5.36
L1E	5.02
L1T	4.91
L1V	4.91
L1F	4.48

Variants of: B2
Experiment: as above
Conditions: c terminus: a fixed tail appended

Variant	protein stability index
L15S	3.67
L15A	4.29
L15F	3.36
L15R	3.61
L15P	3.7
L15M	3.35
L15V	3.24
L15I	3.05
E24G	2.91
E24M	2.62
E24Y	2.35
E24N	3.49
E24L	1.97
E24H	2.75
E24S	2.91
E24I	1.97
L17R	3.55
L17Y	3.46
L17D	4.5
L17Q	3.55
L17M	2.91
L17P	3.67
L17A	3.92
L17I	3.22
S3C	2.46

Variant	protein stability index
S3L	3.04
S3V	2.56
S3F	2.29
S3T	2.9
S3E	3.97
S3P	3.79
F1Y	3.3
F1H	4.7
F1S	5.1
F1D	4.84
F1Q	4.57
F1P	5.13
F1G	5.12
E18I	2.01
E18N	3.12
E18A	2.7
E18R	2.28
E18G	2.86
E18M	2.62
L6I	3.37
L6Q	3.6
L6G	3.64
L6M	3.71
L6D	4.09
L6N	3.85

Variant	protein stability index
P12K	4.02
P12W	2.71
P12M	3.46
P12V	3.5
P12N	4.3
P12C	3.62
P12L	2.81
G10T	3.46
G10S	3.15
G10K	3.14
G10P	3.47
G10H	2.95
G10W	2.76
I20T	3.97
I20W	3.5
I20E	4.2
I20R	3.5
I20P	3.77
M22E	4.79
M22P	3.71
M22W	3.16
H5P	3.68
H5K	2.83
H5D	4.42
H5V	3.87

Variant	protein stability index
H5A	4.06
H5C	3.73
H5E	4.15
H14N	3.67
H14M	3.74
H14A	4
H14W	2.27
H14C	2.66
H14F	3.09
G16S	3.26
G16Q	3.6
G16A	3.58
G16Y	2.68
G16L	2.4
G16D	3.59
G16I	2.31
E23Q	3.26
E23W	2.56
E23I	2.62
E23K	3.34
E23M	2.33
E23R	2.95
P2H	1.84
P2Y	3
P2C	2.57

Variant	protein stability index
P2I	2.12
P2V	1.5
P2D	3.95
P2A	2.62
D19M	2.28
D19N	3.06
D19F	2.09
D19H	3.29
D19W	2.16
D11A	3.23
D11N	2.12
D11L	2.89
D11V	3.32
D11S	2.13
G7W	2.73
G7Y	3.22
G7N	3.43
G7R	3.36
L21N	3.85
L21S	3.69
L21W	3.14
L21V	3.4
D4S	2.51
D4V	2.59
D4Y	2.75

Variant	protein stability index
D4E	3.77
D8V	3.1
D8C	2.88
D8T	2.36
D8M	2.96
D8S	3.19
D8N	3.28
D8A	2.96
F13T	4.93
F13V	4.89
F13E	5.21
F13C	4.62
F13A	4.62
F13H	5.09
F13L	4.25
F13M	4.7
F13Q	4.61
L9K	3.94
L9G	3.54
L9W	2.19
L9H	3.66
L9P	3.42
L9D	4.5
L9C	3.5
L9N	4.32
